Molecular target: DREP2 CIDE domain (amino acids 1–84), wild-type (Drosophila melanogaster)
Test: SEC-MALS; self-association; Superdex 200 HR 10/30 coupled to three-angle light scattering and refractive index detectors, 0.2 mL/min; wild type measured in 50 mM NaCl and in 1 M NaCl

Work on “DREP2 CIDE domain (amino acids 1–84), wild-type (domain or fragment)” yielded a stoichiometry N of 16 to 18 molecules.
